The values that follow come from US20040254354A1 (INHIBITEX, published 2004).

B2: biotinylated recombinant region A from ClfA (other)
chain: SENSVTQSDSASNESKSNDSSSVSAAPKTDDTNVSDTKTSSNTNNGETSVAQNPAQQETTQSSSTNATTEETPVTGEATTTTTNQANTPATTQSSNTNAEELVNQTSNETTFNDTNTVSSVNSPQNSTNAENVSTTQDTSTEATPSNNESAPQSTDASNKDVVNQAVNTSAPRMRAFSLAAVAADAPAAGTDITNQLTNVTVGIDSGTTVYPHQAGYVKLNYGFSVPNSAVKGDTFKITVPKELNLNGVTSTAKVPPIMAGDQVLANGVIDSDGNVIYTFTDYVNTKDDVKATLTMPAYIDPENVKKTGNVTLATGIGSTTANKTVLVDYEKYGKFYNLSIKGTIDQIDKTNNTYRQTIYVNPSGDNVIAPVLTGNLKPNTDSNALIDQQNTSIKVYKVDNAADLSESYFVNPENFEDVTNSVNITFPNPNQYKVEFNTPDDQITTPYIVVVNGHIDPNSKGDLALRSTLYGYNSNIIWRSMSWDNEVAFNNGSGSGDGIDKPVVPEQPDEPGEIEPIPE
modifications: biotinylated (sites not given)
notes: domain: region A; also called ClfA region A; biotinylated ClfA

In one experiment the target is human fibrinogen (human) (UniProt P02671). The experiment in a line: cell-based or functional assay.
In experiment [1] the target is B2. The experiment in a line: Western affinity blot of human fibrinogen (FIG. 22).
For a further experiment, the target named is T1, bovine serum albumin (bovine, UniProt P02769 25-607).
T1 construct: also called BSA
T1 sequence (P02769 25-607 limits assumed): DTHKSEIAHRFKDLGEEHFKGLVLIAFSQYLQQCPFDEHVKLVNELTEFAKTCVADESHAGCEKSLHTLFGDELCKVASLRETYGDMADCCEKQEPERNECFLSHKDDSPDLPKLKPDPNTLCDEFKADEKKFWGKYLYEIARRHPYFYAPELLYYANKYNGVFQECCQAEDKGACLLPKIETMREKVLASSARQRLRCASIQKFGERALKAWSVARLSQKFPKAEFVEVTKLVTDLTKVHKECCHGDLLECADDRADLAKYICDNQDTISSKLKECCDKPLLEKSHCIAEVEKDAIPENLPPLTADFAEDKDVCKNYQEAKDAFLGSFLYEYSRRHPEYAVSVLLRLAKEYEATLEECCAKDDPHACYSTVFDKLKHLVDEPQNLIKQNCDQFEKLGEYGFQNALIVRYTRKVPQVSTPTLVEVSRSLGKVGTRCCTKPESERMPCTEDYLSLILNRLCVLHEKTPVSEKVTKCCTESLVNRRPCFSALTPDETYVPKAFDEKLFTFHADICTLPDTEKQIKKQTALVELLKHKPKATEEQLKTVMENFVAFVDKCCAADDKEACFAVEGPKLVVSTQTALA
The experiment in a line: direct ELISA, biotinylated region A on BSA-coated plates. A general note: In an ELISA, binding on a coated surface is turned into a signal by an enzyme label.

In another experiment the target is T2, human fibrinogen (human, UniProt P02671 20-629; P02675 31-491; P02679 27-437).
T2 construct: Bought (Chromogenix for ELISA and blots; Calbiochem, plasminogen free, for clumping assays); The plate adherence paragraphs say only 'fibrinogen'; also called solid phase fibrinogen; immobilized fibrinogen
T2 sequence 1: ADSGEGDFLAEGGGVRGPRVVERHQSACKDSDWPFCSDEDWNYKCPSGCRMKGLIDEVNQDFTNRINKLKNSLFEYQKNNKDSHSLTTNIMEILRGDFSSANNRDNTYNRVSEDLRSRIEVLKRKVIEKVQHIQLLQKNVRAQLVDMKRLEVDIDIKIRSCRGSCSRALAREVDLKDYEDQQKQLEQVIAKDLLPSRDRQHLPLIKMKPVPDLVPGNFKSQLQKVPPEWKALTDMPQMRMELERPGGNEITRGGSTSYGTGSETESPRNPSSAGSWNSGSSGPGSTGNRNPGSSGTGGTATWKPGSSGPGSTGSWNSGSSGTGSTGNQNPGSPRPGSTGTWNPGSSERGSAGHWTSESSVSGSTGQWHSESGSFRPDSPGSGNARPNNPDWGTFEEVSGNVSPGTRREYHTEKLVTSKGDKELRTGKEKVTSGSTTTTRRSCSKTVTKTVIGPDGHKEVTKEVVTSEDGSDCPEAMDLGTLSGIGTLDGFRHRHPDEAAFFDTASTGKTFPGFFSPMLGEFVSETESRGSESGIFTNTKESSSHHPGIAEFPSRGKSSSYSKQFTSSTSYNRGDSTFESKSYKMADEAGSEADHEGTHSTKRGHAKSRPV
T2 sequence 2: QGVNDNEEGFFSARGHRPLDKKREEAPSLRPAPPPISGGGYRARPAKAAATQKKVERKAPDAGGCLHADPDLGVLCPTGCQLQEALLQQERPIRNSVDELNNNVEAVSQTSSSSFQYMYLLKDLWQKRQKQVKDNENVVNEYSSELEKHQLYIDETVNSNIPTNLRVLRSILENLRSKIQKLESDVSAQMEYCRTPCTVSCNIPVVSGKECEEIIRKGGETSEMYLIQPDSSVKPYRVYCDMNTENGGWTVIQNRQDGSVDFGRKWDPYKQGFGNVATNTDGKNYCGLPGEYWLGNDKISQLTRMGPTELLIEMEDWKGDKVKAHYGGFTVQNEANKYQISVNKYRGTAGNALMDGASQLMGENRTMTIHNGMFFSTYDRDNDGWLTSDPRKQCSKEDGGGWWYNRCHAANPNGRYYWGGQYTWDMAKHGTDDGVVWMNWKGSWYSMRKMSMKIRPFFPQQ
T2 sequence 3: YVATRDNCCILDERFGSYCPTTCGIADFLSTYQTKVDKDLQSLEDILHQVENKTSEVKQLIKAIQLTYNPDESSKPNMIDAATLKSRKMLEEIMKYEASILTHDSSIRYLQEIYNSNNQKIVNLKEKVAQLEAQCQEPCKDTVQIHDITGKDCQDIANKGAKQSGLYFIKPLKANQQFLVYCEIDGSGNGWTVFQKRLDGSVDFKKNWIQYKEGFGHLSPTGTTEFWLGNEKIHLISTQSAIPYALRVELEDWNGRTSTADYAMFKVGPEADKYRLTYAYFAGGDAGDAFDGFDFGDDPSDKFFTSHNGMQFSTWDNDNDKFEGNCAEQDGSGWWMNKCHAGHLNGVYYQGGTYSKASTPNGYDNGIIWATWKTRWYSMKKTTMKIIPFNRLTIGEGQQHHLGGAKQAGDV
Kind of experiment: direct ELISA, biotinylated region A on fibrinogen-coated plates.

In the experiment with human fibrinogen (human), “ClfA (native, on S. aureus Newman cells) (from UniProt Q53653 40-899)” came in with a Clumping titer, µg/ml fibrinogen; clfB mutant, exponential phase (µg/ml fibrinogen) of 1.95; a Clumping titer, µg/ml fibrinogen; clfB mutant, stationary phase (µg/ml fibrinogen) of 0.98; a Clumping titer, µg/ml fibrinogen; wild-type, stationary phase (µg/ml fibrinogen) of 0.98.

B1: γ chain of human fibrinogen (ligand)
chain: YVATRDNCCILDERFGSYCPTTCGIADFLSTYQTKVDKDLQSLEDILHQVENKTSEVKQLIKAIQLTYNPDESSKPNMIDAATLKSRKMLEEIMKYEASILTHDSSIRYLQEIYNSNNQKIVNLKEKVAQLEAQCQEPCKDTVQIHDITGKDCQDIANKGAKQSGLYFIKPLKANQQFLVYCEIDGSGNGWTVFQKRLDGSVDFKKNWIQYKEGFGHLSPTGTTEFWLGNEKIHLISTQSAIPYALRVELEDWNGRTSTADYAMFKVGPEADKYRLTYAYFAGGDAGDAFDGFDFGDDPSDKFFTSHNGMQFSTWDNDNDKFEGNCAEQDGSGWWMNKCHAGHLNGVYYQGGTYSKASTPNGYDNGIIWATWKTRWYSMKKTTMKIIPFNRLTIGEGQQHHLGGAKQAGDV
notes: also called gamma-chain of fibrinogen; y chain of fibrinogen
For the molecule B1, in experiment [1], the binding result is on record as “binds”.
Take B2: the binding result with bovine serum albumin is given as “no binding”. For the same molecule, the “binding at the highest concentration, relative to ClfB region A” value with human fibrinogen was roughly 50 % greater than ClfB.
